Source: US20240018188A1
[ ]: non-standard residue; d: D form. The star is where a group is joined. Dansyl = CN(C)c1cccc2c(S(=O)(=O)*)cccc12; 2Nal = N[C@@H](Cc1ccc2ccccc2c1)C(=O)O; dNle = CCCC[C@@H](N)C(=O)O; Ahx = NCCCCCC(=O)O; βAla = NCCC(=O)O; Sar = CNCC(=O)O

Target: human RAD51 (human) (UniProt Q06609)
Assay: cell-based or functional assay

Sequence of human RAD51 (human) (Q06609 2-339 limits assumed): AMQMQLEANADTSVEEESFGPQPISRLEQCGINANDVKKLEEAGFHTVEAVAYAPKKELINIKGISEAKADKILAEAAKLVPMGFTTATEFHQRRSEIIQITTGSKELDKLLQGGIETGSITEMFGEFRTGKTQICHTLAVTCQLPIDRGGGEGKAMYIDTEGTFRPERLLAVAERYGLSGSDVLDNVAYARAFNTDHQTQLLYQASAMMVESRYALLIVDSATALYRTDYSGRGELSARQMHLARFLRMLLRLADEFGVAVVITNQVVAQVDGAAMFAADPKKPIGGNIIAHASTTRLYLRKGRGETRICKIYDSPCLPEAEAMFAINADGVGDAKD

| IC50 [µM] | Binder |
| --- | --- |
| 3500 | Ac-[dL][dNle][dR][dS][dR][dR][dL][dR][dV]G[dL][dR][dK][dR][dR][dR][dR][dR]G[2Nal]-NH2 (SMILES CCCC[C@@H](NC(=O)[C@@H](CC(C)C)NC(C)=O)C(=O)N[C@H](CCCNC(=N)N)C(=O)N[C@H](CO)C(=O)N[C@H](CCCNC(=N)N)C(=O)N[C@H](CCCNC(=N)N)C(=O)N[C@H](CC(C)C)C(=O)N[C@H](CCCNC(=N)N)C(=O)N[C@@H](C(=O)NCC(=O)N[C@H](CC(C)C)C(=O)N[C@H](CCCNC(=N)N)C(=O)N[C@H](CCCCN)C(=O)N[C@H](CCCNC(=N)N)C(=O)N[C@H](CCCNC(=N)N)C(=O)N[C@H](CCCNC(=N)N)C(=O)N[C@H](CCCNC(=N)N)C(=O)N[C@H](CCCNC(=N)N)C(=O)NCC(=O)N[C@@H](Cc1ccc2ccccc2c1)C(N)=O)C(C)C) [Compound 14] |
| 20 | Ac-[dL][dNle][dR][dS][dV][dR][dL][dR][dV][βAla][dL][dR][dK][dR][dR][dR][dR][dR]G[2Nal]-NH2 (SMILES CCCC[C@@H](NC(=O)[C@@H](CC(C)C)NC(C)=O)C(=O)N[C@H](CCCNC(=N)N)C(=O)N[C@H](CO)C(=O)N[C@@H](C(=O)N[C@H](CCCNC(=N)N)C(=O)N[C@H](CC(C)C)C(=O)N[C@H](CCCNC(=N)N)C(=O)N[C@@H](C(=O)NCCC(=O)N[C@H](CC(C)C)C(=O)N[C@H](CCCNC(=N)N)C(=O)N[C@H](CCCCN)C(=O)N[C@H](CCCNC(=N)N)C(=O)N[C@H](CCCNC(=N)N)C(=O)N[C@H](CCCNC(=N)N)C(=O)N[C@H](CCCNC(=N)N)C(=O)N[C@H](CCCNC(=N)N)C(=O)NCC(=O)N[C@@H](Cc1ccc2ccccc2c1)C(N)=O)C(C)C)C(C)C) [Compound 17] |
| 43 | Ac-[dL][dNle][dR][dS][dV][dR][dL][dR][dNle]G[dL][dR][dK][dR][dR][dR][dR][dR]G[2Nal]-NH2 (SMILES CCCC[C@@H](NC(=O)[C@@H](CCCNC(=N)N)NC(=O)[C@@H](CC(C)C)NC(=O)[C@@H](CCCNC(=N)N)NC(=O)[C@H](NC(=O)[C@@H](CO)NC(=O)[C@@H](CCCNC(=N)N)NC(=O)[C@@H](CCCC)NC(=O)[C@@H](CC(C)C)NC(C)=O)C(C)C)C(=O)NCC(=O)N[C@H](CC(C)C)C(=O)N[C@H](CCCNC(=N)N)C(=O)N[C@H](CCCCN)C(=O)N[C@H](CCCNC(=N)N)C(=O)N[C@H](CCCNC(=N)N)C(=O)N[C@H](CCCNC(=N)N)C(=O)N[C@H](CCCNC(=N)N)C(=O)N[C@H](CCCNC(=N)N)C(=O)NCC(=O)N[C@@H](Cc1ccc2ccccc2c1)C(N)=O) [Compound 16] |
| 17 | Ac-[dL][dNle][dR]G[dV][dR][dL][dR][dV]G[dL][dR][dK][dR][dR][dR][dR][dR]G[2Nal]-NH2 (SMILES CCCC[C@@H](NC(=O)[C@@H](CC(C)C)NC(C)=O)C(=O)N[C@H](CCCNC(=N)N)C(=O)NCC(=O)N[C@@H](C(=O)N[C@H](CCCNC(=N)N)C(=O)N[C@H](CC(C)C)C(=O)N[C@H](CCCNC(=N)N)C(=O)N[C@@H](C(=O)NCC(=O)N[C@H](CC(C)C)C(=O)N[C@H](CCCNC(=N)N)C(=O)N[C@H](CCCCN)C(=O)N[C@H](CCCNC(=N)N)C(=O)N[C@H](CCCNC(=N)N)C(=O)N[C@H](CCCNC(=N)N)C(=O)N[C@H](CCCNC(=N)N)C(=O)N[C@H](CCCNC(=N)N)C(=O)NCC(=O)N[C@@H](Cc1ccc2ccccc2c1)C(N)=O)C(C)C)C(C)C) [Compound 12] |
| 20.6 | Ac-[dL][dNle][dR][dA][dV][dR][dL][dR][dV][βAla][dL][dR][Ahx][dR][Ahx][dR][Ahx][dR][Ahx][dR][Ahx][dR]-NH2 (SMILES CCCC[C@@H](NC(=O)[C@@H](CC(C)C)NC(C)=O)C(=O)N[C@H](CCCNC(=N)N)C(=O)N[C@H](C)C(=O)N[C@@H](C(=O)N[C@H](CCCNC(=N)N)C(=O)N[C@H](CC(C)C)C(=O)N[C@H](CCCNC(=N)N)C(=O)N[C@@H](C(=O)NCCC(=O)N[C@H](CC(C)C)C(=O)N[C@H](CCCNC(=N)N)C(=O)NCCCCCC(=O)N[C@H](CCCNC(=N)N)C(=O)NCCCCCC(=O)N[C@H](CCCNC(=N)N)C(=O)NCCCCCC(=O)N[C@H](CCCNC(=N)N)C(=O)NCCCCCC(=O)N[C@H](CCCNC(=N)N)C(=O)NCCCCCC(=O)N[C@H](CCCNC(=N)N)C(N)=O)C(C)C)C(C)C) [Compound 23] |
| 25 | Ac-[dL][dNle][dR][dS][dV][dR][dL][dR][dV]G[dL][dR][dR][dR][dR][dR][dR][Sar][Sar]-OMe (SMILES CCCC[C@@H](NC(=O)[C@@H](CC(C)C)NC(C)=O)C(=O)N[C@H](CCCNC(=N)N)C(=O)N[C@H](CO)C(=O)N[C@@H](C(=O)N[C@H](CCCNC(=N)N)C(=O)N[C@H](CC(C)C)C(=O)N[C@H](CCCNC(=N)N)C(=O)N[C@@H](C(=O)NCC(=O)N[C@H](CC(C)C)C(=O)N[C@H](CCCNC(=N)N)C(=O)N[C@H](CCCNC(=N)N)C(=O)N[C@H](CCCNC(=N)N)C(=O)N[C@H](CCCNC(=N)N)C(=O)N[C@H](CCCNC(=N)N)C(=O)N[C@H](CCCNC(=N)N)C(=O)N(C)CC(=O)N(C)CC(=O)OC)C(C)C)C(C)C) [Compound 21] |
| 18 | Ac-[dL][dNle][dR][βAla][dV][dR][dL][dR][dV][βAla][dL][dR][dK][dR][dR][dR][dR][dR]G[2Nal]-NH2 (SMILES CCCC[C@@H](NC(=O)[C@@H](CC(C)C)NC(C)=O)C(=O)N[C@H](CCCNC(=N)N)C(=O)NCCC(=O)N[C@@H](C(=O)N[C@H](CCCNC(=N)N)C(=O)N[C@H](CC(C)C)C(=O)N[C@H](CCCNC(=N)N)C(=O)N[C@@H](C(=O)NCCC(=O)N[C@H](CC(C)C)C(=O)N[C@H](CCCNC(=N)N)C(=O)N[C@H](CCCCN)C(=O)N[C@H](CCCNC(=N)N)C(=O)N[C@H](CCCNC(=N)N)C(=O)N[C@H](CCCNC(=N)N)C(=O)N[C@H](CCCNC(=N)N)C(=O)N[C@H](CCCNC(=N)N)C(=O)NCC(=O)N[C@@H](Cc1ccc2ccccc2c1)C(N)=O)C(C)C)C(C)C) [Compound 22] |
| 6.2 | Ac-[dL][dNle][dR][dA][dV][dR][dL][dR][dV][βAla][dL][dR][Ahx][dR][Ahx][dR][Ahx][dR][Ahx][dR][Ahx][dR][Ahx][dY]-NH2 (SMILES CCCC[C@@H](NC(=O)[C@@H](CC(C)C)NC(C)=O)C(=O)N[C@H](CCCNC(=N)N)C(=O)N[C@H](C)C(=O)N[C@@H](C(=O)N[C@H](CCCNC(=N)N)C(=O)N[C@H](CC(C)C)C(=O)N[C@H](CCCNC(=N)N)C(=O)N[C@@H](C(=O)NCCC(=O)N[C@H](CC(C)C)C(=O)N[C@H](CCCNC(=N)N)C(=O)NCCCCCC(=O)N[C@H](CCCNC(=N)N)C(=O)NCCCCCC(=O)N[C@H](CCCNC(=N)N)C(=O)NCCCCCC(=O)N[C@H](CCCNC(=N)N)C(=O)NCCCCCC(=O)N[C@H](CCCNC(=N)N)C(=O)NCCCCCC(=O)N[C@H](CCCNC(=N)N)C(=O)NCCCCCC(=O)N[C@H](Cc1ccc(O)cc1)C(N)=O)C(C)C)C(C)C) [Compound 24] |
| 8.6 | Dansyl-[Sar][dL][dNle][dR][dS][dV][dR][dL][dR][dV]G[dL][dR][dR][dR][dR][dR][dR][Sar][Sar]-OMe (SMILES CCCC[C@@H](NC(=O)[C@@H](CC(C)C)NC(=O)CN(C)S(=O)(=O)c1cccc2c(N(C)C)cccc12)C(=O)N[C@H](CCCNC(=N)N)C(=O)N[C@H](CO)C(=O)N[C@@H](C(=O)N[C@H](CCCNC(=N)N)C(=O)N[C@H](CC(C)C)C(=O)N[C@H](CCCNC(=N)N)C(=O)N[C@@H](C(=O)NCC(=O)N[C@H](CC(C)C)C(=O)N[C@H](CCCNC(=N)N)C(=O)N[C@H](CCCNC(=N)N)C(=O)N[C@H](CCCNC(=N)N)C(=O)N[C@H](CCCNC(=N)N)C(=O)N[C@H](CCCNC(=N)N)C(=O)N[C@H](CCCNC(=N)N)C(=O)N(C)CC(=O)N(C)CC(=O)OC)C(C)C)C(C)C) [Compound 20] |
| 14 | Ac-[dL][dNle][dR][dS][dV][dR][dL][dR][dV]G[dL][dR][Ahx][dR][Ahx][dR][Ahx][dR][Ahx][dR][Ahx][dR]-NH2 (SMILES CCCC[C@@H](NC(=O)[C@@H](CC(C)C)NC(C)=O)C(=O)N[C@H](CCCNC(=N)N)C(=O)N[C@H](CO)C(=O)N[C@@H](C(=O)N[C@H](CCCNC(=N)N)C(=O)N[C@H](CC(C)C)C(=O)N[C@H](CCCNC(=N)N)C(=O)N[C@@H](C(=O)NCC(=O)N[C@H](CC(C)C)C(=O)N[C@H](CCCNC(=N)N)C(=O)NCCCCCC(=O)N[C@H](CCCNC(=N)N)C(=O)NCCCCCC(=O)N[C@H](CCCNC(=N)N)C(=O)NCCCCCC(=O)N[C@H](CCCNC(=N)N)C(=O)NCCCCCC(=O)N[C@H](CCCNC(=N)N)C(=O)NCCCCCC(=O)N[C@H](CCCNC(=N)N)C(N)=O)C(C)C)C(C)C) [Compound 25] |
| 6.2 | Dansyl-[Sar][dL][dNle][dR][dS][dV][dR][dL][dR][dV]G[dL][dR][dK][dR][dR][dR][dR][dR]-NH2 (SMILES CCCC[C@@H](NC(=O)[C@@H](CC(C)C)NC(=O)CN(C)S(=O)(=O)c1cccc2c(N(C)C)cccc12)C(=O)N[C@H](CCCNC(=N)N)C(=O)N[C@H](CO)C(=O)N[C@@H](C(=O)N[C@H](CCCNC(=N)N)C(=O)N[C@H](CC(C)C)C(=O)N[C@H](CCCNC(=N)N)C(=O)N[C@@H](C(=O)NCC(=O)N[C@H](CC(C)C)C(=O)N[C@H](CCCNC(=N)N)C(=O)N[C@H](CCCCN)C(=O)N[C@H](CCCNC(=N)N)C(=O)N[C@H](CCCNC(=N)N)C(=O)N[C@H](CCCNC(=N)N)C(=O)N[C@H](CCCNC(=N)N)C(=O)N[C@H](CCCNC(=N)N)C(N)=O)C(C)C)C(C)C) [Compound 19] |
